# Assay results from patent US20260097113A1 (Pfizer, published 2026).
# T1: RSV F protein of subtype A comprising a polypeptide of SEQ ID NO: 1 and a polypeptide of SEQ ID NO: 2 (RSV subtype A, UniProt P11209 137-513; P03420 26-109)
# T1 construct: Stabilized prefusion F trimer made of three F2-F1 heterodimers; Produced recombinantly in CHO cells; also called RSV A; RSVA
# T1 chain 1: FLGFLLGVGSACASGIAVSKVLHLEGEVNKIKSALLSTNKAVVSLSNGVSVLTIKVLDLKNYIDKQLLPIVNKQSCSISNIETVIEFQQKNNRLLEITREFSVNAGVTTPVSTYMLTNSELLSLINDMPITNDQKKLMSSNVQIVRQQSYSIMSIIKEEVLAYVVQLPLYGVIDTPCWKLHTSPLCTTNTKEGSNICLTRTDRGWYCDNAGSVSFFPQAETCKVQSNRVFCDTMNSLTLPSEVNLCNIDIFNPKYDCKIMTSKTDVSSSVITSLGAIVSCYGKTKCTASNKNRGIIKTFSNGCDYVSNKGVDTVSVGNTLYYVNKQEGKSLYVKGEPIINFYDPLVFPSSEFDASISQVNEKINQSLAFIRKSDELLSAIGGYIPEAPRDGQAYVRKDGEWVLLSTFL
# T1 chain 2: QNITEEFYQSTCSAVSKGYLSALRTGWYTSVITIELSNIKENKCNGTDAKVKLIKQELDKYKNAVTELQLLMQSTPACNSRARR
# Legend:
# [1] = molecular target: RSV A + RSV B bivalent composition (RSV subtype A; RSV subtype B); experiment: AM14 Fab titration by SEC; Low-Fast cycle; 1 M 2-8°C
# [2] = molecular target: RSV A + RSV B bivalent composition (RSV subtype A; RSV subtype B); experiment: AM14 Fab titration by SEC; composition of Table 14; Target lyophilization cycle, T0
# [3] = molecular target: RSV A + RSV B bivalent composition (RSV subtype A; RSV subtype B); experiment: AM14 Fab titration by SEC; Low-Fast cycle; 3 M 2-8°C (second value)
# [4] = molecular target: RSV A + RSV B bivalent composition (RSV subtype A; RSV subtype B); experiment: AM14 Fab titration by SEC; composition of Table 14; pre-lyo composition
# [5] = molecular target: RSV A + RSV B bivalent composition (RSV subtype A; RSV subtype B); experiment: AM14 Fab titration by SEC; High-Slow 2 cycle; 3 M 2-8°C
# [6] = molecular target: RSV A + RSV B bivalent composition (RSV subtype A; RSV subtype B); experiment: AM14 Fab titration by SEC; High-Slow 2 cycle; T0
# [7] = molecular target: RSV A + RSV B bivalent composition (RSV subtype A; RSV subtype B); experiment: AM14 Fab titration by SEC; Low-Fast cycle; 1 M 25°C
# [8] = molecular target: RSV A + RSV B bivalent composition (RSV subtype A; RSV subtype B); experiment: AM14 Fab titration by SEC; Low-Fast cycle; 8 M 2-8°C
# [9] = molecular target: RSV A + RSV B bivalent composition (RSV subtype A; RSV subtype B); experiment: AM14 Fab titration by SEC; Target cycle; T0 (second value)
# [10] = molecular target: RSV A + RSV B bivalent composition (RSV subtype A; RSV subtype B); experiment: AM14 Fab titration by SEC; High-Slow 1 cycle; 1 M 25°C (second value)
# [11] = molecular target: RSV A + RSV B bivalent composition (RSV subtype A; RSV subtype B); experiment: AM14 Fab titration by SEC; Target cycle; 1 M 40°C (second value)
# [12] = molecular target: T1, RSV F protein of subtype A comprising a …; experiment: AM14 ELISA; F19 (pH 7, 50 mM NaCl, 3% trehalose + 3% mannitol); 2 wk 5°C
# [13] = molecular target: T1, RSV F protein of subtype A comprising a …; experiment: AM14 ELISA; F16 (pH 6, 0 mM NaCl, 0% sucrose); 2 wk 25°C
# [14] = molecular target: T1, RSV F protein of subtype A comprising a …; experiment: AM14 ELISA; F4 (pH 6, 50 mM NaCl, 4.5% sucrose); 2 wk 5°C
# [15] = molecular target: T1, RSV F protein of subtype A comprising a …; experiment: AM14 ELISA; F4 (pH 6, 50 mM NaCl, 4.5% sucrose); T0
# [16] = molecular target: T1, RSV F protein of subtype A comprising a …; experiment: AM14 ELISA; F12 (pH 8, 100 mM NaCl, 9.0% sucrose); T0
# [17] = molecular target: T1, RSV F protein of subtype A comprising a …; experiment: AM14 ELISA; F15 (pH 6, 0 mM NaCl, 9% sucrose); 2 wk 5°C
# [18] = molecular target: T1, RSV F protein of subtype A comprising a …; experiment: AM14 ELISA; F6 (pH 7, 0 mM NaCl, 4.5% sucrose); 2 wk 5°C
# [19] = molecular target: T1, RSV F protein of subtype A comprising a …; experiment: AM14 ELISA; F12 (pH 8, 100 mM NaCl, 9.0% sucrose); 2 wk 5°C
Molecule,Prefusion Content (%) [1] [%],Prefusion Content (%) [2] [%],Prefusion Content (%) [3] [%],Prefusion Content (%) [4] [%],Prefusion Content (%) [5] [%],Prefusion Content (%) [6] [%],Prefusion Content (%) [7] [%],Prefusion Content (%) [8] [%],Prefusion Content (%) [9] [%],Prefusion Content (%) [10] [%],Prefusion Content (%) [11] [%],"AM14 prefusion content (%), relative to standard [12] [%]","AM14 prefusion content (%), relative to standard [13] [%]","AM14 prefusion content (%), relative to standard [14] [%]","AM14 prefusion content (%), relative to standard [15] [%]","AM14 prefusion content (%), relative to standard [16] [%]","AM14 prefusion content (%), relative to standard [17] [%]","AM14 prefusion content (%), relative to standard [18] [%]","AM14 prefusion content (%), relative to standard [19] [%]"
AM14 Fab,53,80,59,77,62,61,63,73,77,65,66,,,,,,,,
"AM14 (trimeric prefusion specific antibody of the AM14 ELISA) (antibody, V domains shown, Antibody as used in the AM14 ELISA, detected with an HRP-labeled secondary antibody) VH: EVQLVESGGGVVQPGRSLRLSCAASGFSFSHYAMHWVRQAPGKGLEWVAVISYDGENTYYADSVKGRFSISRDNSKNTVSLQMNSLRPEDTALYYCARDRIVDDYYYYGMDVWGQGATVTVSS VL: DIQMTQSPSSLSASVGDRVTITCQASQDIKKYLNWYHQKPGKVPELLMHDASNLETGVPSRFSGRGSGTDFTLTISSLQPEDIGTYYCQQYDNLPPLTFGGGTKVEIKR",,,,,,,,,,,,75,76,62,57,100,84,77,72
